# According to patent US20200270325A1 (Merck Sharp & Dohme, published 2020):
# Numbered stars: 1 amine (or outer) side, 2 acyl side, 3 side chain; on linkers, the order of the positions; unused ones are H or OH. Square brackets hold non-standard residues; d marks the D form. Side chains are listed from the residue outwards. Ends that are not written are not given here. * marks the point of attachment. Phe(4-CH2NH2) = NCc1ccc(C[C@H](N)C(=O)O)cc1; C18 diacid = O=C(O)CCCCCCCCCCCCCCCCC(=O)*; C16 diacid = O=C(O)CCCCCCCCCCCCCCC(=O)*; γGlu = O=C(O)[C@H](CCC(=O)[*:2])N[*:1]; Met(O2) = CS(=O)(=O)CC[C@H](N)C(=O)O; αMeD = C[C@](N)(CC(=O)O)C(=O)O; AEEA = NCCOCCOCC(=O)O; Aib = CC(C)(N)C(=O)O
# Experiments:
# [1] = molecular target: human GLP-1 receptor (GLP1R) (human, UniProt P43220 24-463); assay: cell-based or functional assay
# [2] = molecular target: human Glucagon receptor (GCGR) (human, UniProt P47871 26-477); assay: cell-based or functional assay
# Sequence of human Glucagon receptor (GCGR) (P47871 26-477): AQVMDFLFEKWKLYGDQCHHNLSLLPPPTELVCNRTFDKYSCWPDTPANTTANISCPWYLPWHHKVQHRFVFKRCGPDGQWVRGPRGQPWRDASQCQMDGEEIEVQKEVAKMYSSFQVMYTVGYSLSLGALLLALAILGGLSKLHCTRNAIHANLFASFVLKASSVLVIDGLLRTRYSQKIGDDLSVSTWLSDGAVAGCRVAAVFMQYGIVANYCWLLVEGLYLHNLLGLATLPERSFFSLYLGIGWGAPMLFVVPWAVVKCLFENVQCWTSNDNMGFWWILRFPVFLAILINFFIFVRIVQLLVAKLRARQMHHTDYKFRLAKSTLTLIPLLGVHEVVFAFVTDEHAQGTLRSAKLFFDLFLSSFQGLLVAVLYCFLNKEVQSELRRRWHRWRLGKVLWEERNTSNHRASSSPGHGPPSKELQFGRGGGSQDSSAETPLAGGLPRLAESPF
Binder,GLP1R EC50 human [1] [nM],GCGR EC50 human [2] [nM]
H[Aib]QGTFTSDYSKYLD[Aib]RAAQ[Phe(4-CH2NH2)]([AEEA-AEEA-γGlu-C16 diacid])FVQWLLATK-{γGlu-NH2} [TP665],1.6,0.79
H[Aib]QGTFTSDYSKYLD[Aib]RAAQFVQK([AEEA-AEEA-γGlu-C16 diacid])WLLATK-{γGlu-NH2} [TP666],> 19.8,> 19.8
H[Aib]QGTFTSDYSKYLD[Aib]RAAQFVQ[Phe(4-CH2NH2)]([AEEA-AEEA-γGlu-C16 diacid])WLLATK-{γGlu-NH2} [TP667],> 19.8,> 19.8
H[Aib]QGTFTSDYSKYLDARAAK([AEEA-AEEA-γGlu-C18 diacid])DFVQWL[Met(O2)]ET-NH2 (N-terminus assumed; SMILES CC(C)C[C@H](NC(=O)[C@H](Cc1ccc(O)cc1)NC(=O)[C@H](CCCCN)NC(=O)[C@H](CO)NC(=O)[C@H](Cc1ccc(O)cc1)NC(=O)[C@H](CC(=O)O)NC(=O)[C@H](CO)NC(=O)[C@@H](NC(=O)[C@H](Cc1ccccc1)NC(=O)[C@@H](NC(=O)CNC(=O)[C@H](CCC(N)=O)NC(=O)C(C)(C)NC(=O)[C@@H](N)Cc1c[nH]cn1)[C@@H](C)O)[C@@H](C)O)C(=O)N[C@@H](CC(=O)O)C(=O)N[C@@H](C)C(=O)N[C@@H](CCCNC(=N)N)C(=O)N[C@@H](C)C(=O)N[C@@H](C)C(=O)N[C@@H](CCCCNC(=O)COCCOCCNC(=O)COCCOCCNC(=O)CC[C@H](NC(=O)CCCCCCCCCCCCCCCCC(=O)O)C(=O)O)C(=O)N[C@@H](CC(=O)O)C(=O)N[C@@H](Cc1ccccc1)C(=O)N[C@H](C(=O)N[C@@H](CCC(N)=O)C(=O)N[C@@H](Cc1c[nH]c2ccccc12)C(=O)N[C@@H](CC(C)C)C(=O)N[C@@H](CCS(C)(=O)=O)C(=O)N[C@@H](CCC(=O)O)C(=O)N[C@H](C(N)=O)[C@@H](C)O)C(C)C) [TP672],0.51,0.35
H[Aib]QGTFTSDYSKYLD[Aib]RAAK([AEEA-AEEA-γGlu-C18 diacid])DFVQWL[Met(O2)]ET-NH2 (N-terminus assumed; SMILES CC(C)C[C@H](NC(=O)[C@H](Cc1c[nH]c2ccccc12)NC(=O)[C@H](CCC(N)=O)NC(=O)[C@@H](NC(=O)[C@H](Cc1ccccc1)NC(=O)[C@H](CC(=O)O)NC(=O)[C@H](CCCCNC(=O)COCCOCCNC(=O)COCCOCCNC(=O)CC[C@H](NC(=O)CCCCCCCCCCCCCCCCC(=O)O)C(=O)O)NC(=O)[C@H](C)NC(=O)[C@H](C)NC(=O)[C@H](CCCNC(=N)N)NC(=O)C(C)(C)NC(=O)[C@H](CC(=O)O)NC(=O)[C@H](CC(C)C)NC(=O)[C@H](Cc1ccc(O)cc1)NC(=O)[C@H](CCCCN)NC(=O)[C@H](CO)NC(=O)[C@H](Cc1ccc(O)cc1)NC(=O)[C@H](CC(=O)O)NC(=O)[C@H](CO)NC(=O)[C@@H](NC(=O)[C@H](Cc1ccccc1)NC(=O)[C@@H](NC(=O)CNC(=O)[C@H](CCC(N)=O)NC(=O)C(C)(C)NC(=O)[C@@H](N)Cc1c[nH]cn1)[C@@H](C)O)[C@@H](C)O)C(C)C)C(=O)N[C@@H](CCS(C)(=O)=O)C(=O)N[C@@H](CCC(=O)O)C(=O)N[C@H](C(N)=O)[C@@H](C)O) [TP673],0.67,0.22
H[Aib]QGTFTSDYSKYLEARAAK([AEEA-AEEA-γGlu-C18 diacid])DFVQWL[Met(O2)]DT-NH2 (N-terminus assumed; SMILES CC(C)C[C@H](NC(=O)[C@H](Cc1ccc(O)cc1)NC(=O)[C@H](CCCCN)NC(=O)[C@H](CO)NC(=O)[C@H](Cc1ccc(O)cc1)NC(=O)[C@H](CC(=O)O)NC(=O)[C@H](CO)NC(=O)[C@@H](NC(=O)[C@H](Cc1ccccc1)NC(=O)[C@@H](NC(=O)CNC(=O)[C@H](CCC(N)=O)NC(=O)C(C)(C)NC(=O)[C@@H](N)Cc1c[nH]cn1)[C@@H](C)O)[C@@H](C)O)C(=O)N[C@@H](CCC(=O)O)C(=O)N[C@@H](C)C(=O)N[C@@H](CCCNC(=N)N)C(=O)N[C@@H](C)C(=O)N[C@@H](C)C(=O)N[C@@H](CCCCNC(=O)COCCOCCNC(=O)COCCOCCNC(=O)CC[C@H](NC(=O)CCCCCCCCCCCCCCCCC(=O)O)C(=O)O)C(=O)N[C@@H](CC(=O)O)C(=O)N[C@@H](Cc1ccccc1)C(=O)N[C@H](C(=O)N[C@@H](CCC(N)=O)C(=O)N[C@@H](Cc1c[nH]c2ccccc12)C(=O)N[C@@H](CC(C)C)C(=O)N[C@@H](CCS(C)(=O)=O)C(=O)N[C@@H](CC(=O)O)C(=O)N[C@H](C(N)=O)[C@@H](C)O)C(C)C) [TP674],0.45,1.08
H[Aib]QGTFTSDYSKYLD[Aib]RAAQDFVK([AEEA-AEEA-γGlu-C18 diacid])WL[Met(O2)]ET-NH2 (N-terminus assumed; SMILES CC(C)C[C@H](NC(=O)[C@H](Cc1c[nH]c2ccccc12)NC(=O)[C@H](CCCCNC(=O)COCCOCCNC(=O)COCCOCCNC(=O)CC[C@H](NC(=O)CCCCCCCCCCCCCCCCC(=O)O)C(=O)O)NC(=O)[C@@H](NC(=O)[C@H](Cc1ccccc1)NC(=O)[C@H](CC(=O)O)NC(=O)[C@H](CCC(N)=O)NC(=O)[C@H](C)NC(=O)[C@H](C)NC(=O)[C@H](CCCNC(=N)N)NC(=O)C(C)(C)NC(=O)[C@H](CC(=O)O)NC(=O)[C@H](CC(C)C)NC(=O)[C@H](Cc1ccc(O)cc1)NC(=O)[C@H](CCCCN)NC(=O)[C@H](CO)NC(=O)[C@H](Cc1ccc(O)cc1)NC(=O)[C@H](CC(=O)O)NC(=O)[C@H](CO)NC(=O)[C@@H](NC(=O)[C@H](Cc1ccccc1)NC(=O)[C@@H](NC(=O)CNC(=O)[C@H](CCC(N)=O)NC(=O)C(C)(C)NC(=O)[C@@H](N)Cc1c[nH]cn1)[C@@H](C)O)[C@@H](C)O)C(C)C)C(=O)N[C@@H](CCS(C)(=O)=O)C(=O)N[C@@H](CCC(=O)O)C(=O)N[C@H](C(N)=O)[C@@H](C)O) [TP675],0.71,0.3
H[Aib]QGTFTSDYSKYLDARAAK([AEEA-AEEA-AEEA-γGlu-C18 diacid])DFVQWL[Met(O2)]DT-NH2 (N-terminus assumed; SMILES CC(C)C[C@H](NC(=O)[C@H](Cc1ccc(O)cc1)NC(=O)[C@H](CCCCN)NC(=O)[C@H](CO)NC(=O)[C@H](Cc1ccc(O)cc1)NC(=O)[C@H](CC(=O)O)NC(=O)[C@H](CO)NC(=O)[C@@H](NC(=O)[C@H](Cc1ccccc1)NC(=O)[C@@H](NC(=O)CNC(=O)[C@H](CCC(N)=O)NC(=O)C(C)(C)NC(=O)[C@@H](N)Cc1c[nH]cn1)[C@@H](C)O)[C@@H](C)O)C(=O)N[C@@H](CC(=O)O)C(=O)N[C@@H](C)C(=O)N[C@@H](CCCNC(=N)N)C(=O)N[C@@H](C)C(=O)N[C@@H](C)C(=O)N[C@@H](CCCCNC(=O)COCCOCCNC(=O)COCCOCCNC(=O)COCCOCCNC(=O)CC[C@H](NC(=O)CCCCCCCCCCCCCCCCC(=O)O)C(=O)O)C(=O)N[C@@H](CC(=O)O)C(=O)N[C@@H](Cc1ccccc1)C(=O)N[C@H](C(=O)N[C@@H](CCC(N)=O)C(=O)N[C@@H](Cc1c[nH]c2ccccc12)C(=O)N[C@@H](CC(C)C)C(=O)N[C@@H](CCS(C)(=O)=O)C(=O)N[C@@H](CC(=O)O)C(=O)N[C@H](C(N)=O)[C@@H](C)O)C(C)C) [TP676],0.26,0.82
H[Aib]QGTFTSDYSKYLDARAAK([AEEA-AEEA-AEEA-γGlu-C18 diacid])DFVQWL[Met(O2)][αMeD]T-NH2 (N-terminus assumed; SMILES CC(C)C[C@H](NC(=O)[C@H](Cc1ccc(O)cc1)NC(=O)[C@H](CCCCN)NC(=O)[C@H](CO)NC(=O)[C@H](Cc1ccc(O)cc1)NC(=O)[C@H](CC(=O)O)NC(=O)[C@H](CO)NC(=O)[C@@H](NC(=O)[C@H](Cc1ccccc1)NC(=O)[C@@H](NC(=O)CNC(=O)[C@H](CCC(N)=O)NC(=O)C(C)(C)NC(=O)[C@@H](N)Cc1c[nH]cn1)[C@@H](C)O)[C@@H](C)O)C(=O)N[C@@H](CC(=O)O)C(=O)N[C@@H](C)C(=O)N[C@@H](CCCNC(=N)N)C(=O)N[C@@H](C)C(=O)N[C@@H](C)C(=O)N[C@@H](CCCCNC(=O)COCCOCCNC(=O)COCCOCCNC(=O)COCCOCCNC(=O)CC[C@H](NC(=O)CCCCCCCCCCCCCCCCC(=O)O)C(=O)O)C(=O)N[C@@H](CC(=O)O)C(=O)N[C@@H](Cc1ccccc1)C(=O)N[C@H](C(=O)N[C@@H](CCC(N)=O)C(=O)N[C@@H](Cc1c[nH]c2ccccc12)C(=O)N[C@@H](CC(C)C)C(=O)N[C@@H](CCS(C)(=O)=O)C(=O)N[C@@](C)(CC(=O)O)C(=O)N[C@H](C(N)=O)[C@@H](C)O)C(C)C) [TP677],0.76,1.42
H[Aib]QGTFTSD[Phe(4-CH2NH2)]([AEEA-AEEA-γGlu-C20‑OH])SKYLD[Aib]RAAQDFVQWLLATK-{γGlu-NH2} [TP582],2.57,4.95
